Measurements reported in patent publication US20150322149A1 (Hoffmann-La Roche, published 2015).

What was measured:
[1] = biological target: T1, Abeta(1-40), fibrillar, immobilized (UniProt P05067 672-711); experiment: ELISA on coated fibrillar Abeta(1-40)
T1 construct: domain: Abeta(1-40); Numbers 1-40 count on the Abeta peptide, not on the APP precursor; also called Abeta fibrils; fibrillar Abeta
Procedure: Functionality of mAb31 was confirmed by ELISA. Briefly, Abeta(1-40) was coated at 7 μg/mL in PBS onto Maxisorp plates for 3 days at 37° C. to produce fibrillar Abeta, then dried for 3 h at RT. The plate was blocked with 1% Crotein C and 0.1% RSA in PBS (blocking buffer) for 1 h at RT, then washed once with wash buffer. mAb31 constructs were added at concentrations up to 100 nM in blocking buffer and incubated at 4° C. overnight. After 4 wash steps, constructs were detected as indicated above.

[2] = biological target: T2, recombinant mouse transferrin receptor (mTfR), extracellular domain (mouse, UniProt Q62351 89-763); experiment: indirect ELISA on coated recombinant mTfR extracellular domain
T2 construct: extracellular domain; Bought protein; also called murine Transferrin receptor 1
T2 sequence (Q62351 89-763): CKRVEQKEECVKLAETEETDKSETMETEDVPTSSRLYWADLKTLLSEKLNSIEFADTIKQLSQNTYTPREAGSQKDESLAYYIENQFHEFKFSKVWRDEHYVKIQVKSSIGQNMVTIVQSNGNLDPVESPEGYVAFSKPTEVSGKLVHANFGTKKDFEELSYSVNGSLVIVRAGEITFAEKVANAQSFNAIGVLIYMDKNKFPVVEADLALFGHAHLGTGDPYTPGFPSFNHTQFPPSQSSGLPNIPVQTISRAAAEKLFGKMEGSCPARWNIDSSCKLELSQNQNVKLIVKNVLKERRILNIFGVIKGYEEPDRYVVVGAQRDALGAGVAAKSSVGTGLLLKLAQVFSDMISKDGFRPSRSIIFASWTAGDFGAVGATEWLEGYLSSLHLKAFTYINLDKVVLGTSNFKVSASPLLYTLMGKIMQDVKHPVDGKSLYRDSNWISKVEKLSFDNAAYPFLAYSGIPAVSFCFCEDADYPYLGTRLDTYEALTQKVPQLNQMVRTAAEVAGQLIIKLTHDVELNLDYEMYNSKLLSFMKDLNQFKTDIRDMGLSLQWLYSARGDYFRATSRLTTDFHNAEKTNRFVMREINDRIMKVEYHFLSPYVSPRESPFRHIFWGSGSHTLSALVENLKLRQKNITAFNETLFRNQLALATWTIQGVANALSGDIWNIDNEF
Procedure: Binding of mAb31-8D3 constructs to mouse transferrin receptor (mTfR) was assessed by indirect ELISA. To this end, recombinant mTfR (extracellular domain; Sino Biological) was coated to Maxisorb microtiter plate (Nunc) at 1 μg/mL in PBS at 4° C. overnight. After blocking in 1% Cro-tein-C/PBS (blocking buffer; Roche) for 1 h at RT and 4 washes with 0.1% Tween-20/PBS (wash buffer), mAb31-8D3 constructs were added to the wells at concentrations between 0.01 and 150 nM in blocking buffer and incubated for 1 h at RT. After 4 wash steps, constructs were detected by addition of anti-human-IgG-HRP (Jackson Immunoresearch) at 1:10,000 dilution in blocking buffer […], followed by 6 washes and incubation in TMB (Sigma). Absorbance was read out at 450 nm after stopping color development with 1 N HCl.

T1 sequence (P05067 672-711 limits assumed): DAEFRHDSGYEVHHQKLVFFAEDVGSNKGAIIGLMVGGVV

B1: mAb31 (human monoclonal antibody recognizing Abeta; INN Gantenerumab) (antibody, V domains shown)
VH: QVELVESGGGLVQPGGSLRLSCAASGFTFSSYAMSWVRQAPGKGLEWVSAINASGTRTYYADSVKGRFTISRDNSKNTLYLQMNSLRAEDTAVYYCARGKGNTHKPYGYVRYFDVWGQGTLVTVSS
VL: DIVLTQSPATLSLSPGERATLSCRASQSVSSSYLAWYQQKPGQAPRLLIYGASSRATGVPARFSGSGSGTDFTLTISSLEPEDFATYYCLQIYNMPITFGQGTKVEIKR
notes: also called anti-Aβ monoclonal antibody mAb31
B1: binds [1]; no binding (tested: 0.01 to 150 nM) [2].
